Here are results for two molecules from article PMC7801617 (2021).

As usually defined, the Kd is a measure of binding affinity in units of concentration.

No end group written: not given here.

Common to all, as to assay: FP
In assay [1] the target is talin-1 R7–R8 fragment (residues 1355–1652) with mutation Y1389C (mouse, UniProt P26039 1355-1652, Y1389C).
The target of assay [2] is T1, talin-1 R7–R8 fragment, wildtype (residues 1355–1652) (mouse, UniProt P26039 1355-1652).
T1 chain: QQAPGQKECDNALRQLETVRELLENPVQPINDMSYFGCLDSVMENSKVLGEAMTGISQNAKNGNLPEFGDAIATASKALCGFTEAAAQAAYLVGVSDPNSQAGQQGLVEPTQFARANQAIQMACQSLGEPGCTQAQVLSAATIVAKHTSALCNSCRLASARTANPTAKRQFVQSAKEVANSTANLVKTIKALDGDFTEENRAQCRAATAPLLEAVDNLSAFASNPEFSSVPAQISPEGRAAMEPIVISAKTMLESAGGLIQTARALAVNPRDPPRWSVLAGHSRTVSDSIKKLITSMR

Assay [3] concerns the target talin-1 R7–R8 fragment (residues 1355–1652) with mutation R1368W (mouse, UniProt P26039 1355-1652, R1368W).

Sequence of talin-1 R7–R8 fragment (residues 1355–1652) with mutation Y1389C (P26039 1355-1652 Y1389C): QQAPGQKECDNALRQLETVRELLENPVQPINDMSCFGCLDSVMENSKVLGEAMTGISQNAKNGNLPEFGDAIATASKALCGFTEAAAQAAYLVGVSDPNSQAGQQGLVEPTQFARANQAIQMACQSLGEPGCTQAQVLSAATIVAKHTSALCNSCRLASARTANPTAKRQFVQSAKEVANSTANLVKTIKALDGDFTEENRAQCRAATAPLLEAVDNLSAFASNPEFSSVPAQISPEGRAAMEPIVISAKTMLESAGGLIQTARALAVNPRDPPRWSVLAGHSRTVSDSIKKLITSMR
Sequence of talin-1 R7–R8 fragment (residues 1355–1652) with mutation R1368W (P26039 1355-1652 R1368W): as the sequence (P26039 1355-1652 Y1389C) above, with R14W, C35Y counted along it

Regarding PYFVETPYGFQLDLDFVKYVDDIQKGNTIKKLNIQKRRKC (BODIPY or Fluorescein dye coupled via the C-terminal cysteine residue) [KANK1 (30–68) peptide], the results for the Kd in assay [1], in assay [2] and in assay [3] were 350 nM, 350 nM and 390 nM, respectively.

Turning to SEDIDQMFSTLLGEMDLLTQSLGVDTC (also: BODIPY or Fluorescein dye coupled via C-terminal Cys) [RIAM (4–30) peptide], the equilibrium dissociation constant (Kd) was found to be 3600 nM in assay [1], 3600 nM in assay [2] and 3300 nM in assay [3].
